The values that follow come from publication PMC8258697 (The Journal of Biological Chemistry, 2021).

No end group written: not given here. *: point of attachment. Biotin = O=C1N[C@H]2[C@H](CS[C@H]2CCCCC(=O)*)N1

Sequences and labels used below:
T1: sGFP-PPARγ LBD (human, UniProt P37231-1 234-505)
T1 construct: PPARγ isoform 2 LBD, human, UniProt P37231-1, residues 234-505; also called PPARγ coupled to sGFP; source: E. coli T7 express, coexpressed with GroEL/ES, purified (Ni IMAC, TEV, reverse IMAC, SEC); not shown: His10, N-terminal, cleaved; sGFP, N-terminal, kept
T1 sequence (looked up): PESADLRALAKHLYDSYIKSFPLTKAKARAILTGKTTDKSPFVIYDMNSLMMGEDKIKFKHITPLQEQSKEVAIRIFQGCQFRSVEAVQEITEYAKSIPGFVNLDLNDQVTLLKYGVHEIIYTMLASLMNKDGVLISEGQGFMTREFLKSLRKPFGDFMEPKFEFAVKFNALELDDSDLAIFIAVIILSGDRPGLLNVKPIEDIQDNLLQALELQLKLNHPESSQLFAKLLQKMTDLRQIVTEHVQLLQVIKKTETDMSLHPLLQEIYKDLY

T2: label-free PPARγ LBD (human, UniProt P37231-1 234-505)
T2 construct: PPARγ isoform 2 LBD, human, UniProt P37231-1, residues 234-505; also called PPARγ LBD without sGFP-tag; PPARγ LBD devoid of any label; source: E. coli T7 express, coexpressed with GroEL/ES, purified (Ni IMAC, TEV, reverse IMAC, SEC); not shown: His10, N-terminal, cleaved
T2 sequence (looked up): T1 sequence (looked up)

B1: free RXRα total mutant LBD (unlabeled) (domain or fragment, human, UniProt P19793-1 223-462, looked up)
chain: TSSANEDMPVERILEAELAVEPKTETYVEANMGLNPSSPNDPVTNICQAADKQLFTLTEWAERIPHFSELPLDDQTILLRAGWNELLIASFSHRSIAVKDGILLATGLHVHRNSAHSAGVGAIFDRVLTELVSKMRDMQMDKTELGCLRAIVLFNPDSKGLSNPAEVEALREKVYASLEAYCKHKYPEQPGRFAKLLLRLPALRSIGLKCLEHLFFFKLIGDTPIDTYLMRMLEAPHQMT
notes: retinoid X receptor alpha (RXRα) LBD, human, residues 223-462 (pMal construct), five AF-2 mutations; also called unlabeled recruitment-incapable RXRα LBD (total mutant); unlabeled mutant RXRα LBD; source: E. coli T7 express, coexpressed with GroEL/ES, purified (Ni IMAC, MBP-TEV, amylose flow through, SEC); not shown: MBP, N-terminal, cleaved; His8, N-terminal, cleaved
B2: sGFP-PPARγ LBD:RXRα total mutant LBD (unlabeled) heterodimer (complex, human)
chain 1: T1 sequence (looked up)
chain 2: B1 chain
notes: PPARγ isoform 2 LBD, human, UniProt P37231-1, residues 234-505; RXRα LBD, human, residues 223-462, five AF-2 mutations; also called LBD:LBD heterodimer with RXRα; source: mixed from the purified E. coli proteins (100 nM sGFP-PPARγ LBD, RXRα total mutant LBD titrated); not shown: His10, N-terminal, cleaved; sGFP, N-terminal, kept; MBP, N-terminal, cleaved; His8, N-terminal, cleaved
B3: biotinylated CBP-1 cofactor peptide (CREB-binding protein coactivator motif 1) (peptide)
peptide: Biotin-NLVPDAASKHKQLSELLRGGSGS
notes: coupled to Tb-streptavidin in the assay; also called CBP-1 peptide; CBP-derived peptide; source: bought: Eurogentec GmbH

Holding throughout (settings): both partners purified
The target in one experiment is T1, sGFP-PPARγ LBD. Kind of experiment: AlphaScreen or HTRF; unlabeled RXRα total mutant LBD titrated (up to 8 μM) against 100 nM sGFP-PPARγ LBD, 12 nM Tb-SA, 12 nM biotinylated CBP-1; no ligand (or SR11237 at ≤1 nM).
Experiment [1] concerns the target B3. The description is as above.
Another experiment concerns the target T2, label-free PPARγ LBD. The experiment is described as follows: AlphaScreen or HTRF; heterodimer coactivator recruitment; 100 nM label-free PPARγ LBD, 2 μM sGFP-RXRα LBD total mutant, 12 nM biotinylated CBP-1 on 12 nM Tb-SA; rosiglitazone titrated (also with 50 μM SR11237); 0.1% CHAPS, 1% DMSO, RT.

With B1, the binding result with sGFP-PPARγ LBD is “binds”. As to B2, in experiment [1], the “CBP-1 recruitment relative to that seen with rosiglitazone (%)” value was no more than 5%.

Turning to B3, in the experiment with label-free PPARγ LBD, the binding result was “binds”.
